Reference: PMC10397247
Each block holds one binder with its values, some of them ahead of it.

Columns and labels:
[1] = molecular target: T1, 4H2586-bN; assay: two-hybrid library CCNG1;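 note: natural log of median RNA to DNA barcode read ratio; higher means stronger binding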
T1 chain: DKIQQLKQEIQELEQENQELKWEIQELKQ

[2] = molecular target: T2, 4H2627-bN; assay: two-hybrid library CCNG1;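 note: natural log of median RNA to DNA barcode read ratio; higher means stronger binding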
T2 chain: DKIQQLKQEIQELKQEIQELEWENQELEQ

[3] = molecular target: T3, 4H2673-bN; assay: two-hybrid library CCNG1;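 note: natural log of median RNA to DNA barcode read ratio; higher means stronger binding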
T3 chain: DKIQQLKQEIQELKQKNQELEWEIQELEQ

[4] = molecular target: T4, 4H2702-bN; assay: two-hybrid library CCNG1;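 note: natural log of median RNA to DNA barcode read ratio; higher means stronger binding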
T4 chain: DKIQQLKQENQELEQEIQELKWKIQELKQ

[5] = molecular target: T5, 4H3010-bN; assay: two-hybrid library CCNG1;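 note: natural log of median RNA to DNA barcode read ratio; higher means stronger binding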
T5 chain: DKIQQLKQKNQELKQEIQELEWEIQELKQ

[6] = molecular target: T6, 4H3112-bN; assay: two-hybrid library CCNG1;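 note: natural log of median RNA to DNA barcode read ratio; higher means stronger binding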
T6 chain: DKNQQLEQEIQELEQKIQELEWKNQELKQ

[7] = molecular target: T7, 4H3427-bN; assay: two-hybrid library CCNG1
T7 chain: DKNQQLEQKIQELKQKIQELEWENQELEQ

[8] = molecular target: T8, 4H346-bN; assay: two-hybrid library CCNG1
T8 chain: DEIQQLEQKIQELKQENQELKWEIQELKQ

[9] = molecular target: T9, 4H349-bA; assay: two-hybrid library CCNG1
T9 chain: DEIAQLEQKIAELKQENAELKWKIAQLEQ

[10] = molecular target: T10, 4H3926-bN; assay: two-hybrid library CCNG1
T10 chain: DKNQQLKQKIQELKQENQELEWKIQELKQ

[11] = molecular target: T11, 4H4073-bN; assay: two-hybrid library CCNG1
T11 chain: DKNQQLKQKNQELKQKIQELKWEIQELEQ

[12] = molecular target: T12, 4H457-bN; assay: two-hybrid library CCNG1
T12 chain: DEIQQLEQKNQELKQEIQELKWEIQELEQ

[13] = molecular target: T13, 4H575-bN; assay: two-hybrid library CCNG1
T13 chain: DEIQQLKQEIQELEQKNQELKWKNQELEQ

[14] = molecular target: T14, 4H683-bN; assay: two-hybrid library CCNG1
T14 chain: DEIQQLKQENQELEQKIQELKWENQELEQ

[15] = molecular target: T15, 4H754-bN; assay: two-hybrid library CCNG1
T15 chain: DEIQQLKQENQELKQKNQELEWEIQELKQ

[16] = molecular target: T16, 4H780-bN; assay: two-hybrid library CCNG1
T16 chain: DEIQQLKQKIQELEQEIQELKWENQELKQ

[17] = molecular target: T17, 4H797-bN; assay: two-hybrid library CCNG1
T17 chain: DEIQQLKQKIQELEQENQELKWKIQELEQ

[18] = molecular target: T18, 4H855-bN; assay: two-hybrid library CCNG1
T18 chain: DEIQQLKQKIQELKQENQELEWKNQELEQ

[19] = molecular target: T19, 4H918-bN; assay: two-hybrid library CCNG1
T19 chain: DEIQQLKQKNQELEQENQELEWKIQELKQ

[20] = molecular target: T20, 4H953-bN; assay: two-hybrid library CCNG1
T20 chain: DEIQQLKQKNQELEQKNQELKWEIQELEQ

[21] = molecular target: T21, 4H968-bN; assay: two-hybrid library CCNG1
T21 chain: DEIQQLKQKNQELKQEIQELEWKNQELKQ

[22] = molecular target: T22, 4H_BCR; assay: two-hybrid library CCmax
T22 chain: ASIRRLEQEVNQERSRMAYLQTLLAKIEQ

[23] = molecular target: T23, AP1-AA; assay: two-hybrid library CCmax
T23 chain: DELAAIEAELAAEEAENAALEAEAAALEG

[24] = molecular target: T24, AP2-AA; assay: two-hybrid library CCmax
T24 chain: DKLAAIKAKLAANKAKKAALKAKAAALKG

[25] = molecular target: T25, AP4-AA; assay: two-hybrid library CCmax
T25 chain: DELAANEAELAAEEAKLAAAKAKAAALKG

[26] = molecular target: T26, AP5-AA; assay: two-hybrid library CCmax
T26 chain: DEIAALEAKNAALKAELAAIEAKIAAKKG

[27] = molecular target: T27, AP6-AA; assay: two-hybrid library CCmax
T27 chain: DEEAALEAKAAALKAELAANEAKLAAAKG

[28] = molecular target: T28, AP7-AA; assay: two-hybrid library CCmax
T28 chain: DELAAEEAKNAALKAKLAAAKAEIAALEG

[29] = molecular target: T29, AP8-AA; assay: two-hybrid library CCmax
T29 chain: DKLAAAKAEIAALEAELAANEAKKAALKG

[30] = molecular target: T30, P1-AA; assay: two-hybrid library CCmax
T30 chain: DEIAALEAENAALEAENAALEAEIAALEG

[31] = molecular target: T31, P10-AA; assay: two-hybrid library CCmax
T31 chain: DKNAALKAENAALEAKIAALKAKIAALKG

[32] = molecular target: T32, P11-AA; assay: two-hybrid library CCmax
T32 chain: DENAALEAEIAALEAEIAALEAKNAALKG

[33] = molecular target: T33, P12-AA; assay: two-hybrid library CCmax
T33 chain: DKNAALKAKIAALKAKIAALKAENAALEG

[34] = molecular target: T34, P2-AA; assay: two-hybrid library CCmax
T34 chain: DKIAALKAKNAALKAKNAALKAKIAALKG

[35] = molecular target: T35, P3-AA; assay: two-hybrid library CCmax
T35 chain: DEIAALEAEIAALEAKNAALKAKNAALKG

[36] = molecular target: T36, P4-AA; assay: two-hybrid library CCmax
T36 chain: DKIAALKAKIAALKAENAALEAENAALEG

[37] = molecular target: T37, P7-AA; assay: two-hybrid library CCmax
T37 chain: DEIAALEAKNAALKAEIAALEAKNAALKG

[38] = molecular target: T38, P8-AA; assay: two-hybrid library CCmax
T38 chain: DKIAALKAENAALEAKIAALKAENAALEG

[39] = molecular target: T39, P9-AA; assay: two-hybrid library CCmax
T39 chain: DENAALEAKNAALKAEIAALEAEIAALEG

[40] = molecular target: T40, O16; assay: two-hybrid library CC0; settings: mean of both orientations
T40 chain: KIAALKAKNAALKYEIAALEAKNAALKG

[41] = molecular target: T41, O2; assay: two-hybrid library CC0; settings: mean of both orientations
T41 chain: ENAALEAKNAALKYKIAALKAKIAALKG

[42] = molecular target: T42, O3; assay: two-hybrid library CC0; settings: mean of both orientations
T42 chain: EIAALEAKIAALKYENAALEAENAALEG

[43] = molecular target: T43, O4; assay: two-hybrid library CC0; settings: mean of both orientations
T43 chain: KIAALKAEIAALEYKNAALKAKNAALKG

[44] = molecular target: T44, O5; assay: two-hybrid library CC0; settings: mean of both orientations
T44 chain: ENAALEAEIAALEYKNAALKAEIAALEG

[45] = molecular target: T45, O6; assay: two-hybrid library CC0; settings: mean of both orientations
T45 chain: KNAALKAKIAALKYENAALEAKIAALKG

[46] = molecular target: T46, O7; assay: two-hybrid library CC0; settings: mean of both orientations
T46 chain: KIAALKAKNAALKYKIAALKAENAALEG

[47] = molecular target: T47, O8; assay: two-hybrid library CC0; settings: mean of both orientations
T47 chain: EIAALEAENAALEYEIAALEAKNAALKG

[48] = molecular target: T48, O9; assay: two-hybrid library CC0; settings: mean of both orientations
T48 chain: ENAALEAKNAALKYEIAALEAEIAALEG

[49] = molecular target: T49, AP3-AA; assay: two-hybrid library CCmax
T49 chain: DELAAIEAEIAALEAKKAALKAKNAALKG

Binder: DENQQLKQKIQELEQKIQELEWKNQELEQ [4H1831-bN]
- interaction score [1]: -0.466
- interaction score [2]: 1.7
- interaction score [3]: -0.269
- interaction score [4]: -0.111
- interaction score [5]: -0.741
- interaction score [6]: -0.567
- interaction score [7]: -0.445
- interaction score [8]: 0.142
- interaction score [9]: -1.73
- interaction score [10]: -0.39
- interaction score [11]: 0.223
- interaction score [12]: -1.9
- interaction score [13]: -0.248
- interaction score [14]: -2.14
- interaction score [15]: -0.46
- interaction score [16]: -1.02
- interaction score [17]: -0.203
- interaction score [18]: -0.282
- interaction score [19]: -0.624
- interaction score [20]: -0.677
- interaction score [21]: -0.157

Binder: KIAALKAKNAALKYEIAALEAKNAALKG [O16]
- interaction score [40]: -2.76
- interaction score [41]: -2.67
- interaction score [42]: -2.69
- interaction score [43]: -2.71
- interaction score [44]: -2.68
- interaction score [45]: -1.77
- interaction score [46]: -2.48
- interaction score [47]: 0.382
- interaction score [48]: -2.65

The remaining lines, values ahead:

- interaction score [22]: -1.42
- interaction score [23]: -1.7
- interaction score [24]: -1.83
- interaction score [25]: -1.76
- interaction score [26]: -0.968
- interaction score [27]: -2.3
- interaction score [28]: -1.94
- interaction score [29]: -0.758
- interaction score [30]: -1.41
- interaction score [31]: -0.731
- interaction score [32]: 0.988
- interaction score [33]: -1.53
- interaction score [34]: -1.85
- interaction score [35]: -1.01
- interaction score [36]: -2.3
- interaction score [37]: -1.07
- interaction score [38]: -1.41
- interaction score [39]: -0.77
Binder: KRAKQLRKRLQALEWQLAQIRKELQAAEK [4H_APH3]

- interaction score [22]: -1.77
- interaction score [23]: -1.22
- interaction score [24]: -2.23
- interaction score [49]: -1.71
- interaction score [25]: -1.35
- interaction score [26]: -1.71
- interaction score [27]: -1.16
- interaction score [28]: -1.91
- interaction score [29]: -1.53
- interaction score [30]: -1.37
- interaction score [31]: -1.63
- interaction score [32]: -1.87
- interaction score [33]: -1.31
- interaction score [36]: -1.76
- interaction score [37]: -1.59
- interaction score [38]: -1.79
- interaction score [39]: -1.85
Binder: KRLKQLRKRKQAKRWEEAQIEKELQAIEK [4H_APH2]
